The values that follow come from paper PMC2432501, “Binding to the Minor Groove of the Double-Strand, Tau Protein Prevents DNA from Damage by Peroxidation”.

The target of data set [1] is T1, tau23 (human, UniProt P10636-2 1-352). Description: EMSA; 20 mM Tris pH 7.2, 50 mM NaCl, 0.5 mM DTT, 1 mM MgCl2, 0.5 mM EDTA, room temperature 20-30 min; native PAGE in 1xTBE (20% gel at 4 C, or 8% for the 26 bp assay). To be noted: protein: recombinant; 5' overhang 1 nt at both ends. A general note: In EMSA bound probe runs differently from free probe, usually more slowly.
T1 sequence (P10636 other isoform, or with tags, fused parts or gaps): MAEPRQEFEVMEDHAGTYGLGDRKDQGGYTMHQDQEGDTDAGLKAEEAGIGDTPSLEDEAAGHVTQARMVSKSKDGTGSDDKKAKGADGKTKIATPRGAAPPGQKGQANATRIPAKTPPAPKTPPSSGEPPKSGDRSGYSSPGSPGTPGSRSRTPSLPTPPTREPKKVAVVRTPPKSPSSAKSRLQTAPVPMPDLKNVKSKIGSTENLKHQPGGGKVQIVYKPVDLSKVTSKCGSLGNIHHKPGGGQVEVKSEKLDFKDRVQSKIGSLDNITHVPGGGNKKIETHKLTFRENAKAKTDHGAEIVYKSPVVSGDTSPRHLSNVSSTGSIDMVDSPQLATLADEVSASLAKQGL

The target of data set [2] is T1, tau23. Nature of the data set: EMSA; marked shift from [protein]/[DNA] 1/2; 2.5 uM DNA; 20 mM Tris pH 7.2, 50 mM NaCl, 0.5 mM DTT, 1 mM MgCl2, 0.5 mM EDTA, room temperature 20-30 min; native PAGE in 1xTBE (20% gel at 4 C, or 8% for the 26 bp assay). The conditions noted are these: protein: recombinant; blunt.
Data set [3] concerns the target T1, tau23. Nature of the data set: EMSA; retardation depends on tau/DNA ratio; 20 mM Tris pH 7.2, 50 mM NaCl, 0.5 mM DTT, 1 mM MgCl2, 0.5 mM EDTA, room temperature 20-30 min; native PAGE in 1xTBE (20% gel at 4 C, or 8% for the 26 bp assay). To be noted: protein: recombinant; 5' overhang 1 nt at both ends.
Data set [4] deals with T1, tau23. Nature of the data set: EMSA; shift from [tau]/[bp] 1/100, greatest at 1/3; 20 mM Tris pH 7.2, 50 mM NaCl, 0.5 mM DTT, 1 mM MgCl2, 0.5 mM EDTA, room temperature 20-30 min; native PAGE in 1xTBE (20% gel at 4 C, or 8% for the 26 bp assay). The conditions noted are these: protein: recombinant; 5' overhang 1 nt at both ends.
In data set [5] the target is T1, tau23. Nature of the data set: AFM; protein/DNA 8/1; particle 8.54 nm vs 7.82 nm tau alone; 20 mM Tris pH 7.2, 50 mM NaCl, 0.5 mM DTT, 1 mM MgCl2, 0.5 mM EDTA, room temperature 20-30 min; native PAGE in 1xTBE (20% gel at 4 C, or 8% for the 26 bp assay). The conditions noted are these: protein: recombinant; 5' overhang 1 nt at both ends.

B1: 13 bp DNA (dsDNA)
DNA 1: ACGTGCATAAATAA
DNA 2: CTTATTTATGCACG
Take B1: the binding result in data set [1] is listed as “binds”.

B2: 20 bp DNA (dsDNA)
DNA 1: AACGAGAAGCGCGATCACAT
DNA 2: ATGTGATCGCGCTTCTCGTT
With B2, the binding result in data set [2] is listed as “binds”.

B3: 14 bp DNA (dsDNA)
DNA 1: ACCGTGCATAAATAA
DNA 2: CTTATTTATGCACGG
On to B3, for which the binding result in data set [3] is recorded as “binds”.

B4: 26 bp DNA (dsDNA)
DNA 1: ACTCCGTGCATAAATAATAGGCACTCG
DNA 2: CCGAGTGCCTATTATTTATGCACGGAG
As for B4, the binding result in data set [4] is listed as “binds”.

B5: 12 bp DNA (dsDNA)
DNA 1: AGTGCATAAATAA
DNA 2: CTTATTTATGCAC
Regarding B5, the binding result in data set [5] was “no binding”.
